Results: patent US20240358847A1 (Merck Sharp & Dohme, published 2024)
Numbering of substitutions follows the chain as printed. Numbers in names are those of the source.

T1: Human Trop2 (human, UniProt P09758 27-274, limits assumed)
T1 construct: also called TROP2 protein; trophoblast cell-surface antigen 2
T1 sequence (looked up): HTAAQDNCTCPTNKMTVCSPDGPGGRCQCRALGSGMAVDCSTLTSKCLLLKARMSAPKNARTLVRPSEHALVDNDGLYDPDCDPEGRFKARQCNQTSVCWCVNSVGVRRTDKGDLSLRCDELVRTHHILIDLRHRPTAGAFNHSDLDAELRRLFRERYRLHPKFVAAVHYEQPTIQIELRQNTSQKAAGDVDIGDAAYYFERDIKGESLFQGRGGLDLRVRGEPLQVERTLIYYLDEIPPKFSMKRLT

T2: TROP2 on BxPC-3 and MDA-MB-231-KWL cells (human, UniProt P09758 27-323)
T2 construct: whole, on cells
T2 sequence (looked up): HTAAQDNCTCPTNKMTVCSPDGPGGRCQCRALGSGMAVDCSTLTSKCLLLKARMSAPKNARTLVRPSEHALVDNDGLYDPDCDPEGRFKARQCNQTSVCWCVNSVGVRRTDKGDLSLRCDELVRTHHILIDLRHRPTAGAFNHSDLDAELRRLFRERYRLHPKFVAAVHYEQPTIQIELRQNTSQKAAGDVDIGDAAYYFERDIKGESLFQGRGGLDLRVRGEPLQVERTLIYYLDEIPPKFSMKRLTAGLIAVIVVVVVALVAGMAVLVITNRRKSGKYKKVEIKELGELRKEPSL

B1: αTROP2 (HC:BSM-YTE-S375C) (LC:BSM-Y53D) conjugated to MP-AA-PABC-MMAE (ADC 1) (antibody, human IgG1, kappa, V domains shown)
VH: QVQLLQSGSELKKPGASVKVSCKASGYTFTNYGMNWVRQAPGQGLKWMGWINTYTGEPTYTDDFKGRFSFSLDTSVSQAYLQISSLKAEDTAVYYCARGGFGSSYWYFDVWGQGTLVTVSS
VL: DIQLTQSPSSLSASVGDRVTITCKASQDVSIAVAWYQQKPGKAPKLLIYSASDRYTGVPSRFSGSGSGTDFTLTISSLQPEDFATYYCQQHYITPLTFGPGTKVEIKR
modifications: Cys at position 375 (Eu numbering) conjugated to MP-AA-PABC-MMAE; DAR 1.9
notes: Antibody-drug conjugate; also called αTROP2 (HC:BSM-YTE-S375C-MMAE) (LC:BSM-Y53D)
B2: mAb_LC_Hm_G33S (antibody, human IgG1, kappa)
heavy: not shown
light: DIQLTQSPSSLSASVGDRVSITCKASQDVSIAVAWYQQKPGKAPKLLIYSASYRYTGVPDRFSGSGSGTDFTLTISSLQPEDFAVYYCQQHYITPLTFGAGTKVEIKRTVAAPSVFIFPPSDEQLKSGTASVVCLLNNFYPREAKVQWKVDNALQSGNSQESVTEQDSKDSTYSLSSTLTLSKADYEKHKVYACEVTHQGLSSPVTKSFNRGEC
B3: mAb_Lm_A32Q_HC (antibody, human IgG1, kappa)
heavy: not shown
light: B2 light with A32Q
B4: mAb_Lm_S30R_HC (antibody, human IgG1, kappa)
heavy: not shown
light: B2 light with S30R
B5: mAb_Lm_S50L_HC (antibody, human IgG1, kappa)
heavy: not shown
light: B2 light with S50L
B6: mAb_Lm_Y53S_HC (antibody, human IgG1, kappa)
heavy: not shown
light: B2 light with Y53S
B7: mAb_LC_Hm_W106A (antibody, human IgG1, kappa)
heavy: not shown
light: B2 light
B8: mAb_Lm_A32P_HC (antibody, human IgG1, kappa)
heavy: not shown
light: B2 light with A32P
B9: mAb_LC_Hm_Y32E (antibody, human IgG1, kappa)
heavy: not shown
light: B2 light
B10: mAb_Lm_Y92A_HC (antibody, human IgG1, kappa)
heavy: not shown
light: B2 light with Y92A
B11: mAb_Lm_Y53N_HC (antibody, human IgG1, kappa)
heavy: not shown
light: B2 light with Y53N
B12: mAb_Lm_Y92E_HC (antibody, human IgG1, kappa)
heavy: not shown
light: B2 light with Y92E
B13: mAb_Lm_Y53V_HC (antibody, human IgG1, kappa)
heavy: not shown
light: B2 light with Y53V
B14: αTROP2 (HC:Sac) (LC:Sac-Y53D) (antibody, human IgG1, kappa)
heavy: not shown
light: B2 light with Y53D
B15: mAb_Lm_S50T_HC (antibody, human IgG1, kappa)
heavy: not shown
light: B2 light with S50T
B16: mAb_LC_Hm_Y107N (antibody, human IgG1, kappa)
heavy: not shown
light: B2 light
B17: mAb_LC_Hm_W106E (antibody, human IgG1, kappa)
heavy: not shown
light: B2 light
B18: mAb_LC_Hm_Y105S (antibody, human IgG1, kappa)
heavy: not shown
light: B2 light
B19: mAb_Lm_T94F_HC (antibody, human IgG1, kappa)
heavy: not shown
light: B2 light with T94F
B20: mAb_LC_Hm_N31P (antibody, human IgG1, kappa)
heavy: not shown
light: B2 light
B21: mAb_Lm_I93G_HC (antibody, human IgG1, kappa)
heavy: not shown
light: B2 light with I93G
B22: mAb_LC_Hm_Y107I (antibody, human IgG1, kappa)
heavy: not shown
light: B2 light
B23: mAb_Lm_Q89V_HC (antibody, human IgG1, kappa)
heavy: not shown
light: B2 light with Q89V
B24: mAb_Lm_D28H_HC (antibody, human IgG1, kappa)
heavy: not shown
light: B2 light with D28H
B25: mAb_Lm_H91K_HC (antibody, human IgG1, kappa)
heavy: not shown
light: B2 light with H91K
B26: mAb_LC_Hm_W106L (antibody, human IgG1, kappa)
heavy: not shown
light: B2 light
B27: αTROP2 (HC: Sac-S375C) (LC: Sac-Y53D) (antibody, human IgG1, kappa)
heavy: not shown
light: B2 light with Y53D
B28: αTROP2 Fab (Fab, V domains shown)
VH: B1 VH with L5Q, R38K, S69A, Q78T, E89D, Y95F, T115S
VL: DIQLTQSPSSLSASVGDRVSITCKASQDVSIAVAWYQQKPGKAPKLLIYSASYRYTGVPDRFSGSGSGTDFTLTISSLQPEDFAVYYCQQHYITPLTFGAGTKVEIK
notes: CH1 and kappa constant parts not specified

Each binder was assayed against T1, Human Trop2 (assay: SPR, binding to target).

Row | binding result | Binder
1 | binds | B1

What follows are binders tested against T2, TROP2 on BxPC-3 and MDA-MB-231-KWL cells (assay: on-cell ELISA, BxPC-3 cells (TROP2 high)).
Set-up: unit not given beside the values
Procedure: (§1) Cells were plated in duplicate onto 96-well plates, and primary antibody was diluted in cell culture medium with a starting concentration of 30 μg/mL (200 nM) with a dilution factor of 1:5. […] Data was plotted and analyzed. EC50 ([…]) was measured along with area under the curve (AUC) for each cell line.

Row | AUC (BxPC-3) | Binder
2 | 281 | B2
3 | 142 | B3
4 | 216 | B4
5 | 133 | B5
6 | 307 | B6
7 | 215 | B7
8 | 256 | B8
9 | 298 | B9
10 | 160 | B10
11 | 309 | B11
12 | 165 | B12
13 | 317 | B13
14 | 288 | B14
15 | 305 | B15
16 | 317 | B16
17 | 140 | B17
18 | 268 | B18
19 | 318 | B19
20 | 289 | B20
21 | 305 | B21
22 | 265 | B22
23 | 299 | B23
24 | 300 | B24
25 | 294 | B25
26 | 251 | B26

These binders were tested against T2, TROP2 on BxPC-3 and MDA-MB-231-KWL cells (assay: on-cell ELISA, BxPC-3 vs MDA-MB-231-KWL cells).
Procedure: as §1

Row | ΔAUC | Binder
27 | 144 | B2
28 | 124 | B3
29 | 169 | B4
30 | 129 | B5
31 | 102 | B6
32 | 186 | B7
33 | 192 | B8
34 | 104 | B9
35 | 147 | B10
36 | 169 | B11
37 | 148 | B12
38 | 105 | B13
39 | 193 | B14
40 | 148 | B15
41 | 86.5 | B16
42 | 117 | B17
43 | 188 | B18
44 | 77.4 | B19
45 | 116 | B20
46 | 85.3 | B21
47 | 101 | B22
48 | 98.1 | B23
49 | 86.6 | B24
50 | 132 | B25
51 | 191 | B26

These binders were tested against T2, TROP2 on BxPC-3 and MDA-MB-231-KWL cells (assay: on-cell ELISA, MDA-MB-231-KWL cells (TROP2 low)).
Set-up: unit not given beside the values
Procedure: as §1

Row | AUC (MDA-MB-231-KWL) | Binder
52 | 137 | B2
53 | 17.8 | B3
54 | 47.1 | B4
55 | 4.22 | B5
56 | 205 | B6
57 | 28.7 | B7
58 | 64.3 | B8
59 | 193 | B9
60 | 13.1 | B10
61 | 140 | B11
62 | 16.1 | B12
63 | 213 | B13
64 | 95.1 | B14
65 | 157 | B15
66 | 230 | B16
67 | 22.2 | B17
68 | 80 | B18
69 | 240 | B19
70 | 173 | B20
71 | 220 | B21
72 | 163 | B22
73 | 201 | B23
74 | 214 | B24
75 | 162 | B25
76 | 60.9 | B26

Each binder was assayed against T1, Human Trop2 (assay: SPR, TROP2 capture, pH 7.4, bivalent mode; KDapp).

Row | Kd | Binder
77 | 6.9 nM | B27

These binders were tested against T1, Human Trop2 (assay: SPR, TROP2 capture, pH 7.4, monovalent mode; KDapp).

Row | Kd | Binder
78 | 1.1 nM | B28
